Molecular target: FtsZ-F268C labeled with fluorescein 5-maleimide (donor) or tetramethylrhodamine 5-maleimide (acceptor) (E. coli) (UniProt P0A9A6)

Substance: N-terminally truncated ZipA (26-328) from E. coli (from UniProt P77173 26-328) (domain or fragment)
- FRET assay of subunit exchange of FtsZ protofilaments at steady state with ZipA, pH 6.5: reaction time τ (13.1 s for FtsZ alone): 25.2 s

— paper PMC5473857
